PMC11614108, “Structures of Trichomonas vaginalis macrophage migratory inhibitory factor” (Acta Crystallographica Section F: Structural Biology …, 2024)

How the values were obtained:
[1] = target: T1, His-TvMIF (T. vaginalis macrophage migration inhibitory factor) (Trichomonas vaginalis, UniProt A2DXT4); test: X-ray crystal structure, co-crystallization, […] A; assay type: binding; conditions: 5 mM sodium pyruvate, pH 7.0 protein buffer, reservoir pH 8.5, 291 K; non-canonical site at Asp68, not the tautomerase site (blocked by N-terminal tag); possibly a crystallization artifact
T1 construct: gene TVAG_219770; ~15 kDa monomer; trimer in crystal (8ur2: dimer of trimers)

[2] = target: N-terminally hexahistidine-tagged Trichomonas vaginalis macrophage migration inhibitory factor (Trichomonas vaginalis ATCC PRA-98/G3); test: crystal structure; His-TvMIF co-crystallized with 5 mM sodium pyruvate, Morpheus B12, 291 K, space group I4(1) (PDB 8ur2); six monomers
[3] = target: N-terminally hexahistidine-tagged Trichomonas vaginalis macrophage migration inhibitory factor (Trichomonas vaginalis ATCC PRA-98/G3); test: crystal structure; His-TvMIF crystallized at 291 K by sitting-drop vapor diffusion; apo P4(1)2(1)2 form (PDB 8uz4) and I4(1)22 form from an attempt at co-crystallization with 5 mM sodium 4-hydroxyphenylpyruvate (PDB 8ur4); three monomers per asymmetric unit

| Compound | X-ray crystal structure, co-crystallization, 1.90 A [1] | stoichiometry N [2] | stoichiometry N [3] |
| --- | --- | --- | --- |
| CC(=O)C(=O)O [pyruvate] | The Fo − Fc omit electron-density maps of PDB entry 8ur2 can be modeled with pyruvate | – | – |
| N-terminally hexahistidine-tagged Trichomonas vaginalis macrophage migration inhibitory factor (natural protein) | – | 6 | 3 |
